Assay results as given in patent publication US20220281949A1.

How the values were obtained:
DR1-restricted TCR HA1.7 [1] = assay: flow cytometry: HA1.7-transduced primary CD4+ T cells stained with PE DR1 dimer and anti-CD4
DR1-restricted TCR HA1.7 [2] = assay: as above; remark: listed apart in the source
DR1-restricted TCR HA1.7 [3] = assay: flow cytometry: TCR-transduced primary human T cells stained with PE class II dimer and anti-CD4

Substance: DR1^L114W/V143M+2reps dimer specific to Flu-HA306-318 (peptide-MHC)
- percent of cells in the dimer+ CD4+ quadrant (DR1-restricted TCR HA1.7 [1]): 48.9%
- percent of cells in the dimer+ CD4+ quadrant (DR1-restricted TCR HA1.7 [2]): 53%
- percent of cells in the dimer+ CD4+ quadrant (DR1-restricted TCR HA1.7 [3]): 9.1%

Substance: DR1^L114W/V143M dimer with the cognate peptide of TCR HA1.7 (peptide-MHC)
- percent of cells in the dimer+ CD4+ quadrant (DR1-restricted TCR HA1.7 [1]): 1.5%
